# In a protein production outcome set (Wang et al. 2014):
# Experiment: label from the status in PepcDB records
row,Sequence,protein production
1,MISAWLLVLISITYISLLFLIAWAGDRHPGLYKRRLARTHIYGLSLAVYFTSWTFYGAVGRATQEGLAFLPIYLGPLLVFIFFAPLLRRIIYISKRNNSTSIADFIASRYGKSQVLAAMVAIFALIGSVPYIALQLKAIALGFNVLSGTGDSYQELSTAAWNDSAWYITLALAVFTVLFGTRHLESTEHHRGMIQAVAFESLIKLIAFVAVGLFVGYGLYDGFGDLFTRVREADLMGTLTTESLEAPAFLTQTLVAMLAIICLPRQFHVMVVENTDHRDFEVARWAMPIYLIIASAFVIPIAAAGLLSTHLAGSDPDIVILQLPIMAGEHWLAVLAFLGGGSAAAAMVIVCSVAIATMVSNEIIMPGLLKFFRPGMNRRTDLSFLLLTIRRVAIFVVLLTAYGFYRMAGEDYSLTAFGLLSFAAAAQFGPALVGGILWRQGNFTGAAWGLGLGFLMWCYTLLLPALVSTGWVADTLIEHGLFGWNWTRPTALFGSELDQISHGILWSLGVNTGAYILLSLITRQRIREKIQIAAFFHDAQPKAENAQHQSWQGEILTSDLQALTDRFMGEERSESIFRNYERRNAIRLYPQRPASTHLMKYIERQLASVIGASTARVVLESTLTGRDMQIEDVVSIVDEASQAMTFSRELLQSAIENISLGVSVVNHQQQLVVWNHRYLELFNYPKGFVRVGRPVEDLMRYNLTNANLSARRIDDIVENRCNSMREGKPMSYERQRPDGTVVRVDGSPIPGGGYVTTFQDITAMRRTEQALKETNIYLEQRVRERTQELQVINEQMLKAKSVAEQANQSKTRFLASASHDLLQPLNAARLFTSALSGKVNEGETRDLVDHIDSSLGAAEEIISTLLDISKLDAGALEPDIGVFPVNELLRHLATEFSAIAKDQGLELHVVPSTAWVRSDAKLLRRVVQNFLSNAIRYTASGKILMGCRRLKGYLRIEVWDTGPGMSDDQLNHIFEEFRRFQHGRDKKGLGLGLAIVDRISGMLNHPVTVHSIQGKGSVFGITVPVAPADQSRLDAQKSGSSSRRVSNLGGLHVLCIDNDAAILQGMVALLGNWQCDVTAAESLDDALTKLDGRQPDIILADYQLDDNRNGLDAMDSIREHLGNDIPGILITGYMAPEVRDDAGNRGYQVLYKPVKPAALRALVNKLLKQKRS,failed
2,MISGDTLSAKKPKSVPQEEDQDPPSQSIALLDNHTDSSGSDSSTRSISSCFIFTSLLLVTCIALSAASAFAFLFFSSQKPVLSLNQISKSPAFDRSVARPLKKLDKPVVLLISSDGFRFGYQFKTKLPSIHRLIANGTEAETGLIPVFPTLTFPNHYSIVTGLYPAYHGIINNHFVDPETGNVFTMASHEPEWWLGEPLWETVVNQGLKAATYFWPGSEVHKGSWNCPQGLCQNYNGSVPFDDRVDTILSYFDLPSNEIPSFMTLYFEDPDHQGHQVGPDDPQITEAVVNIDRLIGRLIDGLEKRGIFEDVTMIMVGDHGMVGTCDKKLVVLDDLAPWIKIPSSWVQYYTPLLAIQPPSGHDAADIVAKINEGLSSGKVENGKYLKVYLKEDLPSRLHYVDSDRIPPIIGLVDEGFKVEQKKSKAKECGGAHGYDNAFFSMRTIFIGHGPMFSKGRKVPSFENVQIYNVISSILGLKAAPNNGSDEFSSSILLPRV,failed
3,MISGFSMHSSAHYRQLLARLPQIAVAADQFEVLNSAKDFKSRILSLIASARQRIYLVALYLQDDEAGREILSALYAAKQRNPALDVKVFVDFHRAQRGLIGKGKQGGNHLMYQEMAARHEHQIAIYGVPVKGRELLGVLHLKGFIFDDTLLYSGASLNDIYLHQQDRYRFDRYHQITSPELTRSMVNYVDDLFLRSEAVQRLDRTDIPSAKQLKGPIRRFKHNLRLGQYRFDTMPVNSQEVAITPMSGLGKRGNQLNKMIRTLVRATEREIFICTPYFNPPKELNKDIEALLKRGCKVTIVVGDKTANDFFIPPEEKFSTIGGLPYLYETNLRKFAERNQHHIDAGRLNLMLWCCERNSYHLKGIFVDDEWALLTGNNLNPRAWALDLENGLLVYDRRHLLRPQFNAERENILANTKRISHFDQIEQIQDYPDQVRKLLARIHRVKAHILLKRII,failed
4,MISGISGILCVVLVSKGKISNYFFGLIFAYTYFYVAWGSNFLGEMNTVLYVYLPSQFIGYFMWKANMQNSDGGESVIAKALTVKGWMTLIVVTTVGTLLFVQALQAAGGSSTGLDGLTTIITVAAQILMILPLS,failed
5,MISGSATASHGRVLLPSQRERRPVSTGSNILRFRETVPRQFSLMMVTKATAKYMGTKMREEKLSEMIEEKVKEATEVCEAEEMSEECRVAWDEVEEVSQARADLRIKLKLLNQDPLESFCQENPETDECRIYED,failed
6,MISNNPNHTEYDTWAWLYNQTMGPEYSQNQLKPLEKILLPQIKPNAKILDLCCGTGQLVQTLINRGYQITGVDNSSEMLNYARKNAPNGQFLLADARYFELPLSFDAAFSTSAALNHIMTIPELQQVFQRVYSALKENGWFLFDINHHQQMQRWWRGKIAEGEIENKYAWMVTPNYNPEERQGYFQVTMFQKKTKPSSARIIKIIWRLLSPILNHNLLYKLRIKLLSVFQAKEKNWQRMDEKYFVRGHIPEEIKIALQQTGFTDIQILTLEGNPTIDDRHSAYFLCRKPVNI,failed
7,MISSLSASSSLVSSFVAVKATPVTGPLIPRRDLLSIRIRASSNQNSSGYCFPEKFKSFAKSAILIGAAVSMTGKFSTLPVKAESPVTTIEKTYEEVKEEKLSEITPLSELLDSTPEAVETLRSLLQQKLEKGEDEEALKLLERLVAAQPEETEWKFLMARLLGEMGRPENARQMFEEILQRNPLSFEALFENALLMDRSGEGNAVLQRLEDALAVAEAEYLVKEARDVRLIIAQIHFLQKNVDEALKSYEQLTKEDPKDFRPYFCRGMIYSLLDKNVEAKEQFAKYRELSPKKFEVEGYLRTPLSKMKLFGGSEEN,failed
8,MISVAQYLEAATRPNTERAYAAATRHFEIEWGGHLPTTAEQVARYLAAYAGQLALNTLRHRLAALAQWHQAHGFADPTRAPVVRKVLKGIQTVHPSQEKRATPLQLTQLGQVVDWLDGAATAAGTRDDAAGRLRHMRDRAFVLLGFWRGFRGDELVRLQVQDLELVAGEGMTCFLPHSKSDRQHAGTTYKVPALSRWCPVAATMAWVAAAALHEGPLFRAVNQWGGIAAAPLHPNSLVPLLRRIFREAGLSSPNDYSGHSLRRGFAGWANANGWDVKALMEYVGWRDVHSAMRYLDGADPFARQRIEASVSPATPPLLALAAPAPDPVPTTAVEATVTLTRFNSRVRGLAKAHRLIEQICLQPHQAQRLNADGTRYRLAIAAVDEAAFEETIAMLLDEMHRIADNHQCFLAVALRDEAGGRHWD,failed
9,MITIDPEYFEILKEFGAERVVRCYQCGTCTGICPVSTTDASFPRKPVLLSRFGVGEVIENFEEAWLCLSCNLCTEFCPRDVKPSETMLAIKRVLVENGKTPPYIRDFFQNIMKQKNPWGIGKFKREDWVKKSDVEVPKVKDNPEYEWLWFVGCAHAFENRNINVTLKMARILSDLGINFATLGREEGCCGNDVRRAGEEGLFEVLMEENIKTFGKYGVQRLFTHSPHCFNAFKNWYEGYEVKLFLEILRDAIKSGKLELKNKLDLTVTYHDSCYLGRYNGIYDLPREVLKLIPGVELVEMKSNRRMSLCCGGGAGNIVGDYPGEIQPARVRAQEAAETGANVLAVACPFCLLMLEDGVKTEKLDKQLVVKDIVELVYEAAYGEE,failed
10,MITLAQAEVGKVYTVESVQADIQTKKHLNNLGVVAGQAVVLVNYQNQNGIVLLHNSRIALTDTILQAIHVEERSANEKVWVSLDTLKVGERATIVGIHGQGAVKRRLMDMGLTKGTVIFIRKVAPLADPIEINVRGYELTLRKSEAELILVEKEESELEHHHHHH,failed
11,MITNKKCKGCGAFLNDQINTIGYTPKINETKTNLCQRCFKLIHYNKLEKVSTNLNQSIKETINTLNFSNLQIFAVLDILDLEHTIIDELKEYQNKIIFLVNKIDLLPQRYNSELVNENVVKTLINHGFIDPKIIYVSTHSNTSLKKVMDYIKNATNKKQKSIFFGKSNVGKSSLINALLALNKIKTKLTISSYTNTTINLNKINIQEHQILDAPGVCFDENILNYVRDEDNKSIMISYGAKAINYQINPQQALMISGLVGIQYLKGQKTTFTLYVSSQLDIHRCKLENFIMNFNKRYLLAKFNYLNQDLEFVDHLITLNKDQKTNICIAGLGLLVINAHAEQICIRLPKSVGLKVAKYAII,failed
12,MITQNIESLNNIAKIQHAANTDYLTDLANRRAFFRSAESRIKEYINKKVPYCLAMIDVDFFKKVNDTYGHDSGDQVLKVIALYMRKHFGAGLTARLGGEEFAVLLHGLDADYLHNKLDDFRREIAVSSIPAGDTSISITLSLGVVFDSEDELSKQMNEADNALYAAKENGRNQIVVFGAELDDLEHHHHHH,not failed
13,MITTIISSVVAFATTNIDDIFILLVLFSQVRTEVIRKEGRAVREKATRKKLYIVIGQYLGFSMIIFLSIIGSLSSFFIPVSWIGLLGFVPIYMGVKGLLSLRSYKSNEVIDNVTVSLFKVASITLANGADNISIYIPMFASQTLETNIVTLVIFFSMIAIWCFISYKLIKAPILAKVLEENCHIIVPIVLIGLGMFILFRSGTIGLFS,failed
14,MITTKLKLSVTNDYLLRINENRYVLIDTGYKEDWKLFLKRLKENGIKINEISYVILTHHHDDHVGFLNKLVSENKDIRVVMSDKTNELIKVGENDQTHGGGLINKRIEFLIRYKNMYVSKVLGVKKENNLKFPPYESRNNDIIFTGEVTLRELGIDLPGKIIETPGHTIDSISILFEDGDCFVGDAAANMLKLCGTKNCVIFIMDKKQYYESWDKMIKVGVKKVYPAHGGEFSVGRLKKNIWRNL,failed
15,MITTTIFPGRYVQGAGAINILEEELSRFGERAFVVIDDFVDKNVLGENFFSSFTKVRVNKQIFGGECSDEEIERLSGLVEEETDVVVGIGGGKTLDTAKAVAYKLKKPVVIVPTIASTDAPCSALSVIYTPNGEFKRYLFLPRNPDVVLVDTEIVAKAPARFLVAGMGDALATWFEAESCKQKYAPNMTGRLGSMTAYALARLCYETLLEYGVLAKRSVEEKSVTPALEKIVEANTLLSGLGFESGGLAAAHAIHNGLTVLENTHKYLHGEKVAIGVLASLFLTDKPRKMIEEVYSFCEEVGLPTTLAEIGLDGVSDEDLMKVAEKACDKNETIHNEPQPVTSKDVFFALKAADRYGRMRKNLT,not failed
16,MITVNFLILLLGLVFLVKGSDYFVKSASTIAKKLGVSEFVIGLTLVAIGTSIPELASSIAASIQQASGIVIGNVVGSNIANVGLIVGVAALLSPMKTEIDMLKRDGYIMLFSAVLFFVFAFNRELSMLEAGLFVLLYIAYVFFLFEEAEKYEGKLHFKEFITYFFKFKYINSAMQKLNGNRNRNSDSDRNSDSGNGNERLEGGFAKDIFTLVLSCAAIVIGAKYFVEESIFFAELLGIPDTVIGTTLVAVGTSLPELVVTVSAARQGYGSIALGNVIGSNITNIFLILGLSGLFYPLSVAEMSLFFTTPVMIAISLILLIFISTGWEIKRWEGVVLMMFYVAFLVVLFYI,failed
17,MITVVGTGTGAPLSADAARALAGAGLVVGGRRHLAAAALPDGAERIVLGPLAPALDAIEAALEKQRRVVVLASGDPGFFGIVRALAERFGAERLDVRPGVSSVATAFARLGLPWDDAVVVSAHGRDLRTALNVCRSRPKVAVLTGPGAGPAELGAALAHGFGARVLVVASALGDPEHERVERVTPAEAAARDWGTAVSVVLCLDASRALAPVRTVAGPPAGPARWALEEGDFAHRDSMITKFEVRALALARLGPRLGDLVWDVGAGSGSVAVECARLGAAVTAVEKTLDGVERIHANARAHGVDVHVVHGAAPDALTALPDPDAVFIGGGGRELPALVTACARRARRTVVVAMAALDRVPAVREALTGAGFGCDGVLLQSSRLAPLPGDVTRLAATNPVFLLWGARPPARTEGALQ,failed
